Reference: patent US20190375839A1 (JIANGSU HENGRUI MEDICINE, published 2019)

What was measured:
[1] = biological target: T1, human TIM-3 full length, overexpressed on CHO-S cells (human, UniProt Q8TDQ0 22-301); test: cell-based ELISA on fixed CHO-S cells overexpressing human TIM-3;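 note: antibody binding at serial dilutions to PFA-fixed cells for 1 h at 37 °C, read as TMB colour signal after acid stop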
T1 construct: cells fixed with 4% PFA on plates; also called HAVCR2; Tim-3-overexpressing CHO-S cells
Method: (§1) The binding activity of anti-TIM-3 antibody to CHO-S cells overexpressing human TIM-3 is detected via a binding assay. […] TIM-3-overexpressing cells were immobilized on a 96-well plate. After the addition of the antibody, signal strength was used to determine the binding activity of the antibody to Tim-3-overexpressing CHO-S cells.
(§2) The cells were inoculated on a 96-well plate with 4E5/ml density, 100 μg/well, and cultured overnight. Supernatant was discarded and the plate was washed three times with PBS. 100 μl/well of 4% PFA was added into each well, and the plate was fixed at room temperature for 30 minutes. The plate was washed three times with PBS. The liquid was discarded, and 200 μl of blocking solution (5% skim milk (Guangming skim milk powder) diluted with PBS) was added to each well. The plate was incubated at 37° C. for 2.5 h. Then the blocking solution was discarded, and the plate was washed 5 times with PBST buffer (pH 7.4 PBS containing 0.05% Tween-20). 50 μl/well of various concentrations of antibodies to be tested (antibody via hybridoma purification or humanized antibody), diluted with sample buffer, were added into each well, and incubated at 37° C. for 1 h. […] The plate was washed 6 times with PBST, and 100 μl/well TMB chromogenic substrates (KPL, Cat, No., 52-00-03) was added to each well. The plate was incubated at room temperature for 5-15 min. Reaction was stopped by the addition of 50 μl of 1 M H₂SO₄ to each well.

[2] = biological target: T2, Extracellular domain of TIM-3 with Flag and His tag (human); test: Biacore SPR; antibody captured by anti-human capture antibody on CM5, TIM-3-Flag-His in mobile phase
T2 construct: also called TIM-3-Flag-His
From the text: The reaction signal was detected in real-time using Biacore instrument to obtain the association and dissociation curves. […] In the experiment, after each cycle of dissociation was finished, the biosensor chip was washed with the regenerative solution in the human capture antibody Kit.

[3] = biological target: T1, human TIM-3 full length, overexpressed …; test: cell-based ELISA on CHO-S cells overexpressing human TIM-3
Method: as §1, §2

[4] = biological target: T2, Extracellular domain of TIM-3 with Flag …; test: Biacore SPR; antibody as stationary phase, 'TIM-3-His' as mobile phase

Row | EC50 [1] | Kd [2] | EC50 [3] | Kd [4] | Binder
1 | 0.166 nM | 1.39 nM |  |  | Ch1701 (antibody, human IgG4 S228P, kappa, V domains shown) VH: EVQLQQSGPELVKPGASVKISCKASGYTFTDYYMNWVKQSHGKSLEWIADIIPNNGGSKYNQKFKDKATLTVDKSSSTAYMELRSLTSEDSAVYYCATWGYGSSYRWFDYWGQGTLVSVSA VL: DIQMTQSPASQSASLGESVTITCLASQPIGIWLAWYQQKPGKSPQLLIYAATSLADGVPSRFSGSGSGTKFSFKISSLQAEDFVSYYCQQLYSSPWTFGGGTKLEIKR
2 | 0.08 nM | 1.76 nM |  |  | Ch1799 (antibody, human IgG4 S228P, kappa, V domains shown) VH: EVKLVESEGGLVQPGSSMKLSCTASGFTFSDYYMAWVRQVPEKGLEWVANINYDGSSTYYLDSLKSRFIISRDNAKNILYLQMNSLKSDDTATYYCARDVGYYGGNYGFAYWGQGTLVTVSA VL: DIQMTQSPASLSASVGETVTITCRASDNIYSYLAWYQQKQGKSPQLLVYNAKTLAEGVPSRFSGSGSGTQFSLKINSLQPEDFGSYYCQQHYGSPLTFGAGTKLELKR
3 | 0.063 nM | 1.78 nM |  |  | h1799-005 (antibody, human IgG4 S228P, kappa, Humanized IgG4 (S228P)/kappa) heavy: not shown light: DIQMTQSPSSLSASVGDRVTITCRASDNIYSYLAWYQQKPGKAPKLLIYNAKTLAEGVPSRFSGSGSGTDFTLTISSLQPEDFATYYCQQHYGSPLTFGQGTKLEIKRTVAAPSVFIFPPSDEQLKSGTASVVCLLNNFYPREAKVQWKVDNALQSGNSQESVTEQDSKDSTYSLSSTLTLSKADYEKHKVYACEVTHQGLSSPVTKSFNRGEC
4 | 0.095 nM | 1.89 nM |  |  | h1799-006 (antibody, human IgG4 S228P, kappa, Humanized IgG4 (S228P)/kappa) heavy: not shown light: DIQMTQSPSSLSASVGDRVTITCRASDNIYSYLAWYQQKPGKAPKLLVYNAKTLAEGVPSRFSGSGSGTDFTLTISSLQPEDFATYYCQQHYGSPLTFGQGTKLEIKRTVAAPSVFIFPPSDEQLKSGTASVVCLLNNFYPREAKVQWKVDNALQSGNSQESVTEQDSKDSTYSLSSTLTLSKADYEKHKVYACEVTHQGLSSPVTKSFNRGEC
5 | 0.077 nM | 2.48 nM |  |  | h1799-010 (antibody, human IgG4 S228P, kappa, Humanized IgG4 (S228P)/kappa) heavy: not shown light: DIQMTQSPSSLSASVGDRVTITCRASDNIYSYLAWYQQKPGKAPKLLIYNAKTLAEGVPSRFSGSGSGTDFTLTISSLQPEDFATYYCQQHYGSPLTFGQGTKLEIKRTVAAPSVFIFPPSDEQLKSGTASVVCLLNNFYPREAKVQWKVDNALQSGNSQESVTEQDSKDSTYSLSSTLTLSKADYEKHKVYACEVTHQGLSSPVTKSFNRGEC
6 | 0.187 nM | 1.34 nM | 0.503 nM | 0.599 nM | h1701-009 (antibody, human IgG4 S228P, kappa, V domains shown, Humanized IgG4 (S228P)/kappa) VH: QVQLVQSGAEVKKPGASVKVSCKASGYTFTDYYMNWVRQAPGQGLEWMGDIIPNNGGSKYNQKFKDRVTMTTDTSTSTAYMELRSLRSDDTAVYYCATWGYGSSYRWFDYWGQGTLVTVSS VL: DIQMTQSPSSLSASVGDRVTITCLASQPIGIWLAWYQQKPGKAPKLLIYAATSLADGVPSRFSGSGSGTDFTFTISSLQPEDIATYYCQQLYSSPWTFGGGTKVEIKR
7 |  |  | 0.673 nM | 0.64 nM | h1701-009NEG (antibody, human IgG4 S228P, kappa, V domains shown, HCDR2 point-mutation variant of h1701-009 (NNG to NEG); IgG4 (S228P)/kappa) VH: QVQLVQSGAEVKKPGASVKVSCKASGYTFTDYYMNWVRQAPGQGLEWMGDIIPNEGGSKYNQKFKDRVTMTTDTSTSTAYMELRSLRSDDTAVYYCATWGYGSSYRWFDYWGQGTLVTVSS VL: DIQMTQSPSSLSASVGDRVTITCLASQPIGIWLAWYQQKPGKAPKLLIYAATSLADGVPSRFSGSGSGTDFTFTISSLQPEDIATYYCQQLYSSPWTFGGGTKVEIKR
8 |  |  | 0.515 nM | 0.569 nM | h1701-009NNA (antibody, human IgG4 S228P, kappa, V domains shown, HCDR2 point-mutation variant of h1701-009 (NNG to NNA); IgG4 (S228P)/kappa) VH: QVQLVQSGAEVKKPGASVKVSCKASGYTFTDYYMNWVRQAPGQGLEWMGDIIPNNAGSKYNQKFKDRVTMTTDTSTSTAYMELRSLRSDDTAVYYCATWGYGSSYRWFDYWGQGTLVTVSS VL: DIQMTQSPSSLSASVGDRVTITCLASQPIGIWLAWYQQKPGKAPKLLIYAATSLADGVPSRFSGSGSGTDFTFTISSLQPEDIATYYCQQLYSSPWTFGGGTKVEIKR
9 |  |  | 0.512 nM | 0.579 nM | h1701-009NAG (antibody, human IgG4 S228P, kappa, V domains shown, HCDR2 point-mutation variant of h1701-009 (NNG to NAG); IgG4 (S228P)/kappa) VH: QVQLVQSGAEVKKPGASVKVSCKASGYTFTDYYMNWVRQAPGQGLEWMGDIIPNAGGSKYNQKFKDRVTMTTDTSTSTAYMELRSLRSDDTAVYYCATWGYGSSYRWFDYWGQGTLVTVSS VL: DIQMTQSPSSLSASVGDRVTITCLASQPIGIWLAWYQQKPGKAPKLLIYAATSLADGVPSRFSGSGSGTDFTFTISSLQPEDIATYYCQQLYSSPWTFGGGTKVEIKR
10 |  |  | 0.629 nM | 0.653 nM | h1701-009NMA (antibody, human IgG4 S228P, kappa, V domains shown, HCDR2 point-mutation variant of h1701-009 (NNG to NMA); IgG4 (S228P)/kappa) VH: QVQLVQSGAEVKKPGASVKVSCKASGYTFTDYYMNWVRQAPGQGLEWMGDIIPNMAGSKYNQKFKDRVTMTTDTSTSTAYMELRSLRSDDTAVYYCATWGYGSSYRWFDYWGQGTLVTVSS VL: DIQMTQSPSSLSASVGDRVTITCLASQPIGIWLAWYQQKPGKAPKLLIYAATSLADGVPSRFSGSGSGTDFTFTISSLQPEDIATYYCQQLYSSPWTFGGGTKVEIKR
11 |  |  | 0.637 nM | 0.64 nM | h1701-009NLG (antibody, human IgG4 S228P, kappa, V domains shown, HCDR2 point-mutation variant of h1701-009 (NNG to NLG); IgG4 (S228P)/kappa) VH: QVQLVQSGAEVKKPGASVKVSCKASGYTFTDYYMNWVRQAPGQGLEWMGDIIPNLGGSKYNQKFKDRVTMTTDTSTSTAYMELRSLRSDDTAVYYCATWGYGSSYRWFDYWGQGTLVTVSS VL: DIQMTQSPSSLSASVGDRVTITCLASQPIGIWLAWYQQKPGKAPKLLIYAATSLADGVPSRFSGSGSGTDFTFTISSLQPEDIATYYCQQLYSSPWTFGGGTKVEIKR
12 |  |  | 0.438 nM | 0.472 nM | h1701-009NKG (antibody, human IgG4 S228P, kappa, V domains shown, HCDR2 point-mutation variant of h1701-009 (NNG to NKG); IgG4 (S228P)/kappa) VH: QVQLVQSGAEVKKPGASVKVSCKASGYTFTDYYMNWVRQAPGQGLEWMGDIIPNKGGSKYNQKFKDRVTMTTDTSTSTAYMELRSLRSDDTAVYYCATWGYGSSYRWFDYWGQGTLVTVSS VL: DIQMTQSPSSLSASVGDRVTITCLASQPIGIWLAWYQQKPGKAPKLLIYAATSLADGVPSRFSGSGSGTDFTFTISSLQPEDIATYYCQQLYSSPWTFGGGTKVEIKR
13 |  |  | 0.717 nM | 0.581 nM | h1701-009NVG (antibody, human IgG4 S228P, kappa, V domains shown, HCDR2 point-mutation variant of h1701-009 (NNG to NVG); IgG4 (S228P)/kappa) VH: QVQLVQSGAEVKKPGASVKVSCKASGYTFTDYYMNWVRQAPGQGLEWMGDIIPNVGGSKYNQKFKDRVTMTTDTSTSTAYMELRSLRSDDTAVYYCATWGYGSSYRWFDYWGQGTLVTVSS VL: DIQMTQSPSSLSASVGDRVTITCLASQPIGIWLAWYQQKPGKAPKLLIYAATSLADGVPSRFSGSGSGTDFTFTISSLQPEDIATYYCQQLYSSPWTFGGGTKVEIKR
14 | 0.058 nM | 1.6 nM |  |  | h1701-016 (antibody, human IgG4 S228P, kappa, V domains shown, Humanized IgG4 (S228P)/kappa) VH: QVQLVQSGAEVKKPGASVKVSCKASGYTFTDYYMNWVRQAPGQGLEWIADIIPNNGGSKYNQKFKDRATLTTDTSTSTAYMELRSLRSDDTAVYYCATWGYGSSYRWFDYWGQGTLVTVSS VL: DIQMTQSPSSLSASVGDRVTITCLASQPIGIWLAWYQQKPGKSPKLLIYAATSLADGVPSRFSGSGSGTDFTFTISSLQPEDIATYYCQQLYSSPWTFGGGTKVEIKR
15 |  |  | 0.603 nM | 0.675 nM | h1701-009NMG (antibody, human IgG4 S228P, kappa, V domains shown, HCDR2 point-mutation variant of h1701-009 (NNG to NMG); IgG4 (S228P)/kappa) VH: QVQLVQSGAEVKKPGASVKVSCKASGYTFTDYYMNWVRQAPGQGLEWMGDIIPNMGGSKYNQKFKDRVTMTTDTSTSTAYMELRSLRSDDTAVYYCATWGYGSSYRWFDYWGQGTLVTVSS VL: DIQMTQSPSSLSASVGDRVTITCLASQPIGIWLAWYQQKPGKAPKLLIYAATSLADGVPSRFSGSGSGTDFTFTISSLQPEDIATYYCQQLYSSPWTFGGGTKVEIKR
16 |  |  | 0.53 nM | 0.597 nM | h1701-009NHA (antibody, human IgG4 S228P, kappa, V domains shown, HCDR2 point-mutation variant of h1701-009 (NNG to NHA); IgG4 (S228P)/kappa) VH: QVQLVQSGAEVKKPGASVKVSCKASGYTFTDYYMNWVRQAPGQGLEWMGDIIPNHAGSKYNQKFKDRVTMTTDTSTSTAYMELRSLRSDDTAVYYCATWGYGSSYRWFDYWGQGTLVTVSS VL: DIQMTQSPSSLSASVGDRVTITCLASQPIGIWLAWYQQKPGKAPKLLIYAATSLADGVPSRFSGSGSGTDFTFTISSLQPEDIATYYCQQLYSSPWTFGGGTKVEIKR
17 |  |  | 0.317 nM | 0.64 nM | h1701-009NHG (antibody, human IgG4 S228P, kappa, V domains shown, HCDR2 point-mutation variant of h1701-009 (NNG to NHG); IgG4 (S228P)/kappa) VH: QVQLVQSGAEVKKPGASVKVSCKASGYTFTDYYMNWVRQAPGQGLEWMGDIIPNHGGSKYNQKFKDRVTMTTDTSTSTAYMELRSLRSDDTAVYYCATWGYGSSYRWFDYWGQGTLVTVSS VL: DIQMTQSPSSLSASVGDRVTITCLASQPIGIWLAWYQQKPGKAPKLLIYAATSLADGVPSRFSGSGSGTDFTFTISSLQPEDIATYYCQQLYSSPWTFGGGTKVEIKR
18 |  |  | 0.667 nM | 0.653 nM | h1701-009NEA (antibody, human IgG4 S228P, kappa, V domains shown, HCDR2 point-mutation variant of h1701-009 (NNG to NEA); IgG4 (S228P)/kappa) VH: QVQLVQSGAEVKKPGASVKVSCKASGYTFTDYYMNWVRQAPGQGLEWMGDIIPNEAGSKYNQKFKDRVTMTTDTSTSTAYMELRSLRSDDTAVYYCATWGYGSSYRWFDYWGQGTLVTVSS VL: DIQMTQSPSSLSASVGDRVTITCLASQPIGIWLAWYQQKPGKAPKLLIYAATSLADGVPSRFSGSGSGTDFTFTISSLQPEDIATYYCQQLYSSPWTFGGGTKVEIKR
19 | 0.069 nM | 2.25 nM |  |  | h1701-010 (antibody, human IgG4 S228P, kappa, V domains shown, Humanized IgG4 (S228P)/kappa) VH: QVQLVQSGAEVKKPGASVKVSCKASGYTFTDYYMNWVRQAPGQGLEWMGDIIPNNGGSKYNQKFKDRVTMTTDTSTSTAYMELRSLRSDDTAVYYCATWGYGSSYRWFDYWGQGTLVTVSS VL: DIQMTQSPSSLSASVGDRVTITCLASQPIGIWLAWYQQKPGKSPKLLIYAATSLADGVPSRFSGSGSGTDFTFTISSLQPEDIATYYCQQLYSSPWTFGGGTKVEIKR
